We go through six substances from US20090239794A1, “HCV F PROTEIN AND USES THEREOF” (priority 2004, published 2009).

In assay [1] the target is Fmut8Δ11 protein (recombinant ARFP (hepatitis C virus subtype 1a (HCV-1a)) (UniProt P0C045)). As to the kind of experiment: ELISA Control 4: ARFP, no first antibody, secondary alone; row 1/400. (In an ELISA, binding on a coated surface is turned into a signal by an enzyme label.)
In assay [2] the target is Fmut8Δ11 protein (recombinant ARFP, truncated HCV-1a F protein lacking the first 11 N-terminal amino acids) (HCV-1a) (UniProt P0C045). As to the kind of experiment: ELISA Control 4: ARFP, no serum, secondary antibody alone; row 1/1600.
Assay [3] addresses Fmut8Δ11 protein (recombinant ARFP (hepatitis C virus subtype 1a (HCV-1a)) (UniProt P0C045)). Nature of the assay: ELISA Control 4: ARFP, no first antibody, secondary alone; row 1/100.
The target in assay [4] is Fmut8Δ11 protein (recombinant ARFP, truncated HCV-1a F protein lacking the first 11 N-terminal amino acids) (HCV-1a) (UniProt P0C045). As to the kind of experiment: ELISA Control 4: ARFP, no serum, secondary antibody alone; row 1/100.
The target is the same in assay [5]. As to the kind of experiment: ELISA Control 4: ARFP, no serum, secondary antibody alone; row 1/200.
Assay [6] deals with Fmut8Δ11 protein (recombinant ARFP (hepatitis C virus subtype 1a (HCV-1a)) (UniProt P0C045)). Nature of the assay: ELISA Control 4: ARFP, no first antibody, secondary alone; row 1/800.
In assay [7] the target is Fmut8Δ11 protein (recombinant ARFP, truncated HCV-1a F protein lacking the first 11 N-terminal amino acids) (HCV-1a) (UniProt P0C045). As to the kind of experiment: ELISA Control 4: ARFP, no serum, secondary antibody alone; row 1/400.
Assay [8] has the same target. Nature of the assay: ELISA Control 4: ARFP, no serum, secondary antibody alone; row 1/50.
Assay [9] deals with Fmut8Δ11 protein (recombinant ARFP (hepatitis C virus subtype 1a (HCV-1a)) (UniProt P0C045)). As to the kind of experiment: ELISA Control 4: ARFP, no first antibody, secondary alone; row 1/50.
For assay [10] the target is unchanged. Nature of the assay: ELISA Control 4: ARFP, no first antibody, secondary alone; row 1/200.
Assay [11] shares this target. Nature of the assay: ELISA Control 4: ARFP, no first antibody, secondary alone; row 1/1600.
Assay [12] concerns the target Fmut8Δ11 protein (recombinant ARFP, truncated HCV-1a F protein lacking the first 11 N-terminal amino acids) (HCV-1a) (UniProt P0C045). Nature of the assay: ELISA Control 4: ARFP, no serum, secondary antibody alone; row 1/800.
Assay [13] has the same target. As to the kind of experiment: ELISA, serum 1/1600, day 14.
Assay [14] has the same target. Nature of the assay: ELISA, serum 1/1600, day 52.
The target is the same in assay [15]. As to the kind of experiment: ELISA, serum 1/800, day 29.
Assay [16] has the same target. As to the kind of experiment: ELISA, serum 1/400, day 52.
For assay [17] the target is unchanged. Nature of the assay: ELISA, serum 1/50, day 52.
Assay [18] shares this target. As to the kind of experiment: ELISA, serum 1/100, day 52.
Assay [19] has the same target. As to the kind of experiment: ELISA, serum 1/800, day 14.
The target is the same in assay [20]. As to the kind of experiment: ELISA, serum 1/200, day 14.
Assay [21] shares this target. As to the kind of experiment: ELISA, serum 1/50, day 14.
For assay [22] the target is unchanged. As to the kind of experiment: ELISA, serum 1/200, day 52.
The target is the same in assay [23]. As to the kind of experiment: ELISA, serum 1/100, day 14.
The target is the same in assay [24]. Nature of the assay: ELISA, serum 1/400, day 29.
Assay [25] has the same target. As to the kind of experiment: ELISA, serum 1/100, day 29.
The target is the same in assay [26]. Nature of the assay: ELISA, serum 1/1600, day 29.
For assay [27] the target is unchanged. As to the kind of experiment: ELISA, serum 1/400, day 14.
Assay [28] has the same target. As to the kind of experiment: ELISA, serum 1/50, day 29.
The target is the same in assay [29]. Nature of the assay: ELISA, serum 1/800, day 52.
Assay [30] has the same target. Nature of the assay: ELISA, serum 1/200, day 29.

With “AP conjugated goat anti-mouse Ig [G, A, M] (antibody)”, the OD410 in assay [1] stood at 0.11 OD410; in assay [2] it was 0.111; in assay [3], 0.127 OD410; in assay [4], 0.129; in assay [5] it was 0.108; in assay [6] it was 0.109 OD410. For the same substance, the OD410 was determined as 0.111 in assay [7]; 0.131 in [8]; 0.194 OD410 in assay [9]; 0.106 OD410 in assay [10]; 0.109 OD410 in assay [11]; 0.112 in [12].
Regarding “serum of mouse 19, protocol 2, mock immunization (PBS) (antibody)”, the OD410 in assay [13] turned out to be 0.129; in [14], 0.126; in assay [15], 0.139; in assay [16], 0.135; in [17], 0.313; in assay [18], 0.175. Further, the OD410 in assay [19] stood at 0.13; in assay [20], 0.144; in assay [21] it was 0.23; in [22], 0.143; in assay [23] it was 0.18; in assay [24], 0.54. The OD410 in assay [25] was found to be 0.27; in [26], 0.119; in [27], 0.142; in assay [28], 0.444; in assay [29] it was 0.12; in assay [30] it was 0.184.
On to “serum of mouse 20, protocol 2, mock immunization (PBS) (antibody)”, for which the OD410 worked out at 0.118 in [13]; 0.127 in assay [14]; 0.13 in assay [15]; 0.141 in assay [16]; 0.247 in assay [17]; 0.182 in assay [18]. Also, the OD410 was 0.136 in assay [19]; 0.138 in assay [20]; 0.245 in [21]; 0.146 in assay [22]; 0.168 in [23]; 0.133 in assay [24]. The OD410 in [25] is 0.181; in assay [26] it was 0.141; in assay [27], 0.121; in assay [28] it was 0.51; in [29], 0.127; in assay [30], 0.154.
For the substance “serum of mouse 26, protocol 2, mock immunization (PBS) (antibody)”, the OD410 in assay [13] was determined as 0.126; in assay [14] it was 0.118; in [15], 0.144; in assay [16], 0.12; in assay [17], 0.203; in [18], 0.146. Moreover, the OD410 is 0.133 in assay [19]; 0.146 in [20]; 0.281 in [21]; 0.123 in [22]; 0.193 in assay [23]; 0.144 in assay [24]. For the same substance, the OD410 came out at 0.178 in [25]; 0.137 in assay [26]; 0.133 in assay [27]; 0.416 in [28]; 0.114 in assay [29]; 0.154 in assay [30].
Consider “serum of mouse 27, protocol 2, mock immunization (PBS) (antibody)”, for which the OD410 was found to be 0.112 in assay [13]; 0.116 in [14]; 0.124 in assay [15]; 0.12 in [16]; 0.201 in assay [17]; 0.155 in assay [18]. Moreover, the OD410 turned out to be 0.113 in assay [19]; 0.113 in [20]; 0.216 in assay [21]; 0.136 in [22]; 0.146 in assay [23]; 0.13 in assay [24]. The OD410 in assay [25] is 0.175; in assay [26], 0.129; in [27], 0.115; in assay [28], 0.324; in assay [29], 0.115; in [30], 0.14.
Take “serum of mouse 28, protocol 2, mock immunization (PBS) (antibody)”: the OD410 in assay [13] is 0.114; in assay [14], 0.123; in assay [15] it was 0.128; in assay [16], 0.119; in [17], 0.165; in [18] it was 0.141. The OD410 in assay [19] came to 0.122; in assay [20] it was 0.146; in assay [21], 0.261; in [22], 0.117; in assay [23] it was 0.179; in assay [24], 0.143. For the same substance, the OD410 stood at 0.204 in assay [25]; 0.128 in assay [26]; 0.133 in assay [27]; 0.354 in assay [28]; 0.107 in assay [29]; 0.167 in assay [30].
